T1: SHANK1, Q9Y566
T1 sequence (Q9Y566 658-767, limits assumed, looked up): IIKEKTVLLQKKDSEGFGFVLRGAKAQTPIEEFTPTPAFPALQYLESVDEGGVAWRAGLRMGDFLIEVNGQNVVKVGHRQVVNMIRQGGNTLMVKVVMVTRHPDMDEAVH

T2: APBA2_1, Q99767
T2 sequence (Q99767 563-664, limits assumed, looked up): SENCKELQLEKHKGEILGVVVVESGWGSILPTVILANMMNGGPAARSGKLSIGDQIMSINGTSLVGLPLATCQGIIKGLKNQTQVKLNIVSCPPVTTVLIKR

T3: DLG3_2, Q92796
T3 sequence (Q92796 221-321, limits assumed, looked up): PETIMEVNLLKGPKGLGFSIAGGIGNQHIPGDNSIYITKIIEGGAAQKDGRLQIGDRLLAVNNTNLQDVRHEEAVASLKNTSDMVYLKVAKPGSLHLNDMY

T4: TJP3_3, O95049
T4 sequence (O95049 375-456, limits assumed, looked up): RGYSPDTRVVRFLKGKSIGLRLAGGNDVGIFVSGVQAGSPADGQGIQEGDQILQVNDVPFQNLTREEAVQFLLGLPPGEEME

T5: MPDZ_10, O75970
T5 sequence (O75970 1624-1722, limits assumed, looked up): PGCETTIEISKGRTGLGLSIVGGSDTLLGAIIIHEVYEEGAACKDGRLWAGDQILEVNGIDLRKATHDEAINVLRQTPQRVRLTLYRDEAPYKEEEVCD

T6: DLG3_1, Q92796
T6 sequence (Q92796 125-227, limits assumed, looked up): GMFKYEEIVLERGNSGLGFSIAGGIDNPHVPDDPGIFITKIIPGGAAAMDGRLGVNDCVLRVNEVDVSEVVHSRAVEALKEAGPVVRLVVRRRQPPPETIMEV

T7: SNTA1, Q13424
T7 sequence (Q13424 82-180, limits assumed, looked up): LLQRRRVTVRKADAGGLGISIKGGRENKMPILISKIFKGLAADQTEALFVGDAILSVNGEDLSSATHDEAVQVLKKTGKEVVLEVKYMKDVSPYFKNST

T8: SNTG1, Q9NSN8
T8 sequence (Q9NSN8 52-150, limits assumed, looked up): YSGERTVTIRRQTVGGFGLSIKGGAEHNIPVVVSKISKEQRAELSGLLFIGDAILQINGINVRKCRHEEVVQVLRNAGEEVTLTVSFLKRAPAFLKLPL

T9: SYNJ2BP, P57105
T9 sequence (P57105 8-110, limits assumed, looked up): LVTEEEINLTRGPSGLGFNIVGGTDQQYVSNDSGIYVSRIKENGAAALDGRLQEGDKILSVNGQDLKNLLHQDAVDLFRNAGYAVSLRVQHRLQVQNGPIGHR

T10: NHERF3_1, Q5T2W1
T10 sequence (Q5T2W1 4-100, limits assumed, looked up): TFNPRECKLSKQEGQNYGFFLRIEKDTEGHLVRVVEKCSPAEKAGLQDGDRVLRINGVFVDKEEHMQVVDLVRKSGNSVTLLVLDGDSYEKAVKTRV

T11: TX1BP3, O14907
T11 sequence (O14907 10-122, limits assumed, looked up): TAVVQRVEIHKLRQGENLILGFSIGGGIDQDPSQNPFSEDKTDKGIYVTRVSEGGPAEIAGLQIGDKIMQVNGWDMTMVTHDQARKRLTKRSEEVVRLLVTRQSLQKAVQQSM

T12: RHPN1, Q8TCX5
T12 sequence (Q8TCX5 508-602, limits assumed, looked up): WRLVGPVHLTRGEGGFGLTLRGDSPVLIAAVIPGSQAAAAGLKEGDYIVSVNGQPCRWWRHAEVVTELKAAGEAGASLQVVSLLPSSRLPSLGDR


What was measured:
Assay in all cases: holdup assay
Design in all cases: key: below the threshold = too weak to quantify, mostly under pKd 3.1 to 4
Conditions in all cases: plain residues with an end cap or a label only (N-terminal biotin on a linker: ado-ado)
SHANK1, Q9Y566 = target: T1, SHANK1, Q9Y566
APBA2_1, Q99767 = target: T2, APBA2_1, Q99767
MAST2, Q6P0Q8 = target: MAST2, Q6P0Q8
DLG3_2, Q92796 = target: T3, DLG3_2, Q92796
TJP3_3, O95049 = target: T4, TJP3_3, O95049
MAGI1_2, Q96QZ7 = target: MAGI1_2, Q96QZ7
IL16_4, Q14005 = target: IL16_4, Q14005
CASK, O14936 = target: CASK, O14936
MPDZ_10, O75970 = target: T5, MPDZ_10, O75970
SCRIB_1, Q14160 = target: SCRIB_1, Q14160
ARHGEF12, Q9NZN5-2 = target: ARHGEF12, Q9NZN5-2
DLG5_1, Q8TDM6 = target: DLG5_1, Q8TDM6
DLG3_1, Q92796 = target: T6, DLG3_1, Q92796
SNTA1, Q13424 = target: T7, SNTA1, Q13424
GOPC, Q9HD26 = target: GOPC, Q9HD26
NHERF4_1, Q86UT5-2 = target: NHERF4_1, Q86UT5-2
LIMK2, P53671 = target: LIMK2, P53671
SNTG1, Q9NSN8 = target: T8, SNTG1, Q9NSN8
SYNJ2BP, P57105 = target: T9, SYNJ2BP, P57105
FRMPD3, Q5JV73 = target: FRMPD3, Q5JV73
PDZRN4_1, Q6ZMN7 = target: PDZRN4_1, Q6ZMN7
NHERF3_1, Q5T2W1 = target: T10, NHERF3_1, Q5T2W1
TX1BP3, O14907 = target: T11, TX1BP3, O14907
GRASP, Q7Z6J2 = target: GRASP, Q7Z6J2
GRID2IP_1, A4D2P6 = target: GRID2IP_1, A4D2P6
RHPN1, Q8TCX5 = target: T12, RHPN1, Q8TCX5

FRMPD3, Q5JV73, sequence (Q5JV73 12-100): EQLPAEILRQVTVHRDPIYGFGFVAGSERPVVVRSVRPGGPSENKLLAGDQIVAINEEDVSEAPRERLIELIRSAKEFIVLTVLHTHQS
GRID2IP_1, A4D2P6, sequence (A4D2P6 1-87): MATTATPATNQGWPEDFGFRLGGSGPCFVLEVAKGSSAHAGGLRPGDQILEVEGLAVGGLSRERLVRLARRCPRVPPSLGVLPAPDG
SCRIB_1, Q14160, sequence (Q14160 718-814): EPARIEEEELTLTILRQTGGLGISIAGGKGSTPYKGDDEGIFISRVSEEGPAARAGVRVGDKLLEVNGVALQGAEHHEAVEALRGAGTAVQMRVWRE
MAST2, Q6P0Q8, sequence (Q6P0Q8 1099-1202): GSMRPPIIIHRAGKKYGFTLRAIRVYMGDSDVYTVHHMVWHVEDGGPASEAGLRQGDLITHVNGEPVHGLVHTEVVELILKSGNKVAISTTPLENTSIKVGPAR
DLG5_1, Q8TDM6, sequence (Q8TDM6 617-713): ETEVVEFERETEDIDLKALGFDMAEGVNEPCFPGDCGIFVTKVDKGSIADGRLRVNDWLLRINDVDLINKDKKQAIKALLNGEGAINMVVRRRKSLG
CASK, O14936, sequence (O14936 487-570): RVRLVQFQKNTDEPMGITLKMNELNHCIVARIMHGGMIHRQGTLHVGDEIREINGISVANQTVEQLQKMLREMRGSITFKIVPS
NHERF4_1, Q86UT5-2, sequence (Q86UT5 other isoform, or with tags, fused parts or gaps): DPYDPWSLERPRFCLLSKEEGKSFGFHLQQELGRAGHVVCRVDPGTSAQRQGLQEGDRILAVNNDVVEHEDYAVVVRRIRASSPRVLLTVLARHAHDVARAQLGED
GRASP, Q7Z6J2, sequence (Q7Z6J2 96-193): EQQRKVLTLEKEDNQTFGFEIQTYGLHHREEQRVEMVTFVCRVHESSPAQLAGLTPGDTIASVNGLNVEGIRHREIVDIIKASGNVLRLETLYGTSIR
ARHGEF12, Q9NZN5-2, sequence (Q9NZN5 other isoform, or with tags, fused parts or gaps): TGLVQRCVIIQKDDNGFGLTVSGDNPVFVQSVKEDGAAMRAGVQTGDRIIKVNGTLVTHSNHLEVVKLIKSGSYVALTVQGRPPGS
LIMK2, P53671, sequence (P53671 143-248): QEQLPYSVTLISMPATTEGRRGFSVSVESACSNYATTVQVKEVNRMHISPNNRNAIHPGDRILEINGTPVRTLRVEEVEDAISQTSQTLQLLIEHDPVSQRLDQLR
IL16_4, Q14005, sequence (Q14005 1229-1329): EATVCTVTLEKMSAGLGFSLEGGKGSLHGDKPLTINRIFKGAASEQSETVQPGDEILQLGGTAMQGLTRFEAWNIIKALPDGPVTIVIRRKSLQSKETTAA
MAGI1_2, Q96QZ7, sequence (Q96QZ7 456-580): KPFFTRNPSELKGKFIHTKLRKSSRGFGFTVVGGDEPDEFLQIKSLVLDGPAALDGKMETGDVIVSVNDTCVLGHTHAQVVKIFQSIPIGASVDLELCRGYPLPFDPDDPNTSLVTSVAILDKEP
PDZRN4_1, Q6ZMN7, sequence (Q6ZMN7 213-318): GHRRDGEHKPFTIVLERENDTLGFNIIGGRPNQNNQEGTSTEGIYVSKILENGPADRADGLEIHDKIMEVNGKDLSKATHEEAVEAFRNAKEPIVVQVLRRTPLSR

| Binder | pKd (SHANK1, Q9Y566) | pKd (APBA2_1, Q99767) | pKd (MAST2, Q6P0Q8) | pKd (DLG3_2, Q92796) | pKd (TJP3_3, O95049) | pKd (MAGI1_2, Q96QZ7) | pKd (IL16_4, Q14005) | pKd (CASK, O14936) | pKd (MPDZ_10, O75970) | pKd (SCRIB_1, Q14160) | pKd (ARHGEF12, Q9NZN5-2) | pKd (DLG5_1, Q8TDM6) | pKd (DLG3_1, Q92796) | pKd (SNTA1, Q13424) | pKd (GOPC, Q9HD26) | pKd (NHERF4_1, Q86UT5-2) | pKd (LIMK2, P53671) | pKd (SNTG1, Q9NSN8) | pKd (SYNJ2BP, P57105) | pKd (FRMPD3, Q5JV73) | other results |
| --- | --- | --- | --- | --- | --- | --- | --- | --- | --- | --- | --- | --- | --- | --- | --- | --- | --- | --- | --- | --- | --- |
| ETSLVKGIDI [DENND5A, Q6IQ26] | below the threshold | below the threshold | below the threshold | 3.57 | below the threshold | below the threshold | below the threshold | below the threshold | below the threshold | below the threshold | 4.17 | below the threshold | below the threshold | below the threshold | below the threshold | 3.59 | below the threshold | below the threshold | below the threshold | below the threshold | pKd (PDZRN4_1, Q6ZMN7): below the threshold; pKd (NHERF3_1, Q5T2W1): below the threshold; pKd (TX1BP3, O14907): below the threshold; pKd (GRASP, Q7Z6J2): below the threshold; pKd (GRID2IP_1, A4D2P6): below the threshold; pKd (RHPN1, Q8TCX5): 3.56 |
| NASRTRITFV [MCM7, P33993] | below the threshold | below the threshold | 4.99 | 4.75 | 3.53 | 4.71 | 3.67 | below the threshold | 4.29 | 4.26 | 4.46 | below the threshold | 4.19 | 4.97 | 4.2 | 4.12 | below the threshold | 3.71 | 4.44 | below the threshold | pKd (PDZRN4_1, Q6ZMN7): below the threshold; pKd (NHERF3_1, Q5T2W1): 4.28; pKd (TX1BP3, O14907): 4.88; pKd (GRASP, Q7Z6J2): 4.53; pKd (GRID2IP_1, A4D2P6): below the threshold; pKd (RHPN1, Q8TCX5): 4.48 |
| ANGLMQTSKL [SSTR5, P35346] | 4.65 | below the threshold | 5.34 | 3.75 | below the threshold | below the threshold | 3.84 | below the threshold | below the threshold | 4.06 | 4.62 | below the threshold | below the threshold | below the threshold | 4.93 | 4.3 | below the threshold | below the threshold | below the threshold | below the threshold | pKd (PDZRN4_1, Q6ZMN7): below the threshold; pKd (NHERF3_1, Q5T2W1): 5.15; pKd (TX1BP3, O14907): 4.11; pKd (GRASP, Q7Z6J2): 4.68; pKd (GRID2IP_1, A4D2P6): below the threshold; pKd (RHPN1, Q8TCX5): 4.36 |
| QSPPNIYYKV [EFNB3, Q15768] | below the threshold | below the threshold | 4.54 | below the threshold | below the threshold | below the threshold | 3.76 | below the threshold | below the threshold | below the threshold | below the threshold | below the threshold | below the threshold | below the threshold | 3.51 | below the threshold | below the threshold | below the threshold | below the threshold | below the threshold | pKd (PDZRN4_1, Q6ZMN7): below the threshold; pKd (NHERF3_1, Q5T2W1): 3.61; pKd (TX1BP3, O14907): below the threshold; pKd (GRASP, Q7Z6J2): 3.57; pKd (GRID2IP_1, A4D2P6): below the threshold; pKd (RHPN1, Q8TCX5): below the threshold |

— PMC9482650, “Quantitative fragmentomics allow affinity mapping of interactomes” (Nature Communications, 2022)
